Data: patent publication US20030108957A1
“And” between values parts separate entries of the source, which are not always exact repeats. Equal values may be shown once.

Columns and labels:
GroEL (E. coli), P0A6F5 [1] = molecular target: GroEL (E. coli), P0A6F5
GrpE, P09372 = molecular target: T1, GrpE, P09372
T1 chain: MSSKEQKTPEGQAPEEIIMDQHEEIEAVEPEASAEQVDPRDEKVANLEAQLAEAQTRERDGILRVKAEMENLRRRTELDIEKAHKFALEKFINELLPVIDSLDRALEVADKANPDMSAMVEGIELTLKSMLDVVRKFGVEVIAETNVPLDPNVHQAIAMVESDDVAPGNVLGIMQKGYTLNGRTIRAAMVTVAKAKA

[2] = molecular target: E. coli DnaK (E. coli), A1A766
GroES, P0A6F9 = molecular target: T2, GroES, P0A6F9
T2 chain: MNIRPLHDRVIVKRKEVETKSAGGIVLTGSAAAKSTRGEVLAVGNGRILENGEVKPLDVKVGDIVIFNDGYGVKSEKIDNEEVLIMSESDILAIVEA

GroEL (E. coli), P0A6F5 [3] = molecular target: GroEL (E. coli), P0A6F5; remark: listed apart in the source
[4] = molecular target: E. coli DnaK (E. coli), A1A766; remark: listed apart in the source
[5] = molecular target: E. coli DnaK (E. coli), A1A766; remark: listed apart in the source
[6] = molecular target: E. coli DnaK aa588-615 (E. coli)
[7] = molecular target: E. coli DnaK aa583-615 (hinge region between C-terminal helices D and E) (E. coli)
[8] = molecular target: Hsp60 (the human equivalent of GroEL) (human), P10809; assay: fluorescence polarization, 1 nM labeled peptide, 4 µM protein; blank about 62
Sequence of Hsp60 (the human equivalent of GroEL) (human), P10809 (P10809 27-573 limits assumed): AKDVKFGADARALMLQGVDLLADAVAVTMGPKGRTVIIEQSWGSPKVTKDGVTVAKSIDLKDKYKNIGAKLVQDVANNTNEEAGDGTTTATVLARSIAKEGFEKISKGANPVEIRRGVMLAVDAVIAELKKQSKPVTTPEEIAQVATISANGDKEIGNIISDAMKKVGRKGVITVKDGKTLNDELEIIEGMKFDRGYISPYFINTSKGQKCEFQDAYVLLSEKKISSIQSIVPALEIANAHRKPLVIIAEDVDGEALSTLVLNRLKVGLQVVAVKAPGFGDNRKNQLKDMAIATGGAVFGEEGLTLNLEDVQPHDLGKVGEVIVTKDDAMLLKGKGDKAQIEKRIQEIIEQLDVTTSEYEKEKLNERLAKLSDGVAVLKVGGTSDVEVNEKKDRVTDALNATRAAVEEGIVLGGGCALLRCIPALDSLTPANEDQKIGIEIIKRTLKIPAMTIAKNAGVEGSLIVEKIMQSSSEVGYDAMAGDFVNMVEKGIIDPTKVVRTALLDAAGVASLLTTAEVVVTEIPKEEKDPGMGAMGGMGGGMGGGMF

[9] = molecular target: guanyl-nucleotide binding protein Ras (21 kDa); assay: fluorescence polarization, 1 nM labeled peptide, 4 µM Ras; background without protein 46±7
[10] = molecular target: Hsp60 (the human equivalent of GroEL) (human), P10809; assay: fluorescence polarization, 1 nM labeled peptide, 2 µM protein; blank about 62
[11] = molecular target: E. coli DnaK (E. coli), A1A766; assay: cell-based or functional assay

Binder	minipolarization value (millipolarization) (GroEL (E. coli), P0A6F5 [1])	minipolarization value (millipolarization) (GrpE, P09372)	minipolarization value (millipolarization) [2]	minipolarization value (millipolarization) (GroES, P0A6F9)	Millipolarization (no competing peptide) (millipolarization) (GroEL (E. coli), P0A6F5 [3])	Millipolarization (no competing peptide) (millipolarization) [4]	Kd [5] [µM]	millipolarization over the background [5] [%]	Kd [6] [µM]	Kd [7] [µM]	minipolarization value (millipolarization) [8]	millipolarization units (millipolarization units) [9]	minipolarization value (millipolarization) [10]	Millipolarization after preincubation (millipolarization) (GroEL (E. coli), P0A6F5 [3])	Millipolarization after preincubation (millipolarization) [4]	ATPase activity of recombinant DnaK (EnzChek assay, UV absorbance at 360 nm), 50 molar equivalents of peptide (fraction of the original value) [11]
KVDKGSYLPRPTPPRPIYNRN (modifications not checked) [fluorescein-K-pyrrhocoricin]	> 100 and 85	< 62	100 and 95	< 62	70	126	1.1	50	93	50.8	90	52	62			
VDKGSYLPRPTPPRPIYNRN (modifications not checked) [pyrrhocoricin (unlabeled, all L-amino acids, without sugar)]														62	110 and 84	< 0.5
